The chains are these.
B1: EHMT1 (parent)
chain: SARQGELQKVLLMLVDGIDPNFKM
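Further: lentivirally expressed fusions sorted by FACS into six bins by GFP to DsRed ratio, PSI derived from sequencing read proportions per bin multiplied by bin number.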

In the data set the parent is B1. Kind of data set: protein stability index of a GFP-peptide fusion (GPS, HEK-293T) (PSI 1-6); higher = more stable. The following applies: c terminus: a fixed tail appended.
In the case of SARQGELQKVLLMLMDGIDPNFKM [V15M], the protein stability index worked out at 1.59.

As to SARQGELQKVLLMLLDGIDPNFKM [V15L], the protein stability index is 1.49.

SARQGELQKVLLMLNDGIDPNFKM [V15N]: the protein stability index worked out at 2.56.

Regarding SARQGELQKVLLMLCDGIDPNFKM [V15C], the protein stability index worked out at 1.64.

For the variant SARQGELQKVLLMLPDGIDPNFKM [V15P], the protein stability index was found to be 2.39.

With SARQGELQKVLLMLADGIDPNFKM [V15A], the protein stability index turned out to be 2.07.

On to SARQGELQKVLLMLIDGIDPNFKM [V15I], for which the protein stability index was determined as 1.72.

With SARQGELQKVLLMLWDGIDPNFKM [V15W], the protein stability index came out at 2.75.

Turning to SARQGELQKVLLMLEDGIDPNFKM [V15E], the protein stability index was 2.54.

With SARQGELQKVLLMLKDGIDPNFKM [V15K], the protein stability index is 2.25.

Consider SARQGELQKVLLMLRDGIDPNFKM [V15R], for which the protein stability index was found to be 1.65.

Regarding SARQGELQKVLLMLHDGIDPNFKM [V15H], the protein stability index came to 1.66.

SARQGELQKVLLMLFDGIDPNFKM [V15F]: the protein stability index turned out to be 3.86.

As for SARQGELQKVLLMLTDGIDPNFKM [V15T], the protein stability index came to 1.26.

Consider SARQGELQKVLLMLSDGIDPNFKM [V15S], for which the protein stability index is 1.83.

As to SARQGELQKDLLMLVDGIDPNFKM [V10D], the protein stability index is 3.36.

In the case of SARQGELQKRLLMLVDGIDPNFKM [V10R], the protein stability index was 1.88.

With SARQGELQKHLLMLVDGIDPNFKM [V10H], the protein stability index worked out at 2.16.

Take SARQGELQKMLLMLVDGIDPNFKM [V10M]: the protein stability index is 2.12.

Regarding SARQGELQKSLLMLVDGIDPNFKM [V10S], the protein stability index is 2.29.

As to SARQGELQKALLMLVDGIDPNFKM [V10A], the protein stability index came out at 2.33.

For SARQGELQKTLLMLVDGIDPNFKM [V10T], the protein stability index amounted to 1.99.

Turning to SARQGELQKYLLMLVDGIDPNFKM [V10Y], the protein stability index stood at 3.4.

Regarding SARQGELQKELLMLVDGIDPNFKM [V10E], the protein stability index amounted to 3.02.

In the case of SARQGELQKCLLMLVDGIDPNFKM [V10C], the protein stability index was determined as 1.77.

As for SARQGELQKLLLMLVDGIDPNFKM [V10L], the protein stability index was 1.25.

Take SARQGELQKNLLMLVDGIDPNFKM [V10N]: the protein stability index was determined as 3.15.

With SARQGELQKGLLMLVDGIDPNFKM [V10G], the protein stability index was 1.94.

Turning to SARQGELQKKLLMLVDGIDPNFKM [V10K], the protein stability index was determined as 2.47.

On to SARQGELQKWLLMLVDGIDPNFKM [V10W], for which the protein stability index amounted to 1.77.

Take SARQGELQKILLMLVDGIDPNFKM [V10I]: the protein stability index turned out to be 2.01.

Regarding SARQGELQKPLLMLVDGIDPNFKM [V10P], the protein stability index is 2.43.

As for SARQGELQKQLLMLVDGIDPNFKM [V10Q], the protein stability index worked out at 1.72.

Regarding SARQGELQKFLLMLVDGIDPNFKM [V10F], the protein stability index was determined as 4.02.

For the variant SARQGELQKVLLMWVDGIDPNFKM [L14W], the protein stability index came out at 1.79.

With SARQGELQKVLLMRVDGIDPNFKM [L14R], the protein stability index is 2.61.

With SARQGELQKVLLMDVDGIDPNFKM [L14D], the protein stability index stood at 3.47.

Regarding SARQGELQKVLLMVVDGIDPNFKM [L14V], the protein stability index was determined as 2.53.

Regarding SARQGELQKVLLMHVDGIDPNFKM [L14H], the protein stability index turned out to be 2.38.

With SARQGELQKVLLMMVDGIDPNFKM [L14M], the protein stability index was determined as 3.99.

Turning to SARQGELQKVLLMAVDGIDPNFKM [L14A], the protein stability index stood at 2.39.

In the case of SARQGELQKVLLMCVDGIDPNFKM [L14C], the protein stability index stood at 1.46.

For the variant SARQGELQKVLLMTVDGIDPNFKM [L14T], the protein stability index is 1.7.

As for SARQGELQKVLLMEVDGIDPNFKM [L14E], the protein stability index is 3.22.

SARQGELQKVLLMSVDGIDPNFKM [L14S]: the protein stability index was found to be 3.03.

In the case of SARQGELQKVLLMFVDGIDPNFKM [L14F], the protein stability index was determined as 1.93.

Take SARQGELQKVLLMYVDGIDPNFKM [L14Y]: the protein stability index came to 1.76.

With SARQGELQKVLLMPVDGIDPNFKM [L14P], the protein stability index was determined as 3.21.

As to SARQGELQKVLLMNVDGIDPNFKM [L14N], the protein stability index was found to be 3.02.

In the case of SARQGELQKVLLMGVDGIDPNFKM [L14G], the protein stability index is 2.36.

With SARQGELQKVLLMIVDGIDPNFKM [L14I], the protein stability index is 1.98.

For the variant SARQGELQKVLLMKVDGIDPNFKM [L14K], the protein stability index stood at 2.74.

Take SARQGELQKVLLMQVDGIDPNFKM [L14Q]: the protein stability index came to 2.54.

With SARQGELQQVLLMLVDGIDPNFKM [K9Q], the protein stability index was determined as 2.37.

Regarding SARQGELQSVLLMLVDGIDPNFKM [K9S], the protein stability index is 2.79.

For the variant SARQGELQDVLLMLVDGIDPNFKM [K9D], the protein stability index was determined as 1.62.

Take SARQGELQRVLLMLVDGIDPNFKM [K9R]: the protein stability index worked out at 1.68.

As for SARQGELQPVLLMLVDGIDPNFKM [K9P], the protein stability index came out at 1.95.

Consider SARQGELQNVLLMLVDGIDPNFKM [K9N], for which the protein stability index worked out at 1.91.

SARQGELQAVLLMLVDGIDPNFKM [K9A]: the protein stability index turned out to be 2.51.

With SARQGELQHVLLMLVDGIDPNFKM [K9H], the protein stability index worked out at 1.62.

Turning to SARQGELQTVLLMLVDGIDPNFKM [K9T], the protein stability index turned out to be 2.9.

Regarding SARQGELQVVLLMLVDGIDPNFKM [K9V], the protein stability index was found to be 4.22.

For SARQGELQFVLLMLVDGIDPNFKM [K9F], the protein stability index stood at 3.96.

For SARQGELQKVLCMLVDGIDPNFKM [L12C], the protein stability index amounted to 2.31.

On to SARQGELQKVLEMLVDGIDPNFKM [L12E], for which the protein stability index worked out at 3.04.

Consider SARQGELQKVLAMLVDGIDPNFKM [L12A], for which the protein stability index was determined as 1.4.

As for SARQGELQKVLRMLVDGIDPNFKM [L12R], the protein stability index came out at 2.12.

Regarding SARQGELQKVLMMLVDGIDPNFKM [L12M], the protein stability index amounted to 3.16.

As to SARQGELQKVLPMLVDGIDPNFKM [L12P], the protein stability index stood at 3.64.

Consider SARQGELQKVLTMLVDGIDPNFKM [L12T], for which the protein stability index is 1.28.

In the case of SARQGELQKVLDMLVDGIDPNFKM [L12D], the protein stability index was 2.79.

For SARQGELQKVLSMLVDGIDPNFKM [L12S], the protein stability index was determined as 2.18.

Consider SARQGELQKVLVMLVDGIDPNFKM [L12V], for which the protein stability index came to 1.66.

As to SARQGELQKVLKMLVDGIDPNFKM [L12K], the protein stability index was determined as 1.12.

With SARQGELQKVLGMLVDGIDPNFKM [L12G], the protein stability index worked out at 2.15.

Consider SARQGELQKVLFMLVDGIDPNFKM [L12F], for which the protein stability index was 3.06.

Take SARQGELQKVLQMLVDGIDPNFKM [L12Q]: the protein stability index stood at 2.02.

On to SARQGELQKVLNMLVDGIDPNFKM [L12N], for which the protein stability index stood at 2.42.

Consider SARQGELQKVLHMLVDGIDPNFKM [L12H], for which the protein stability index was 2.39.

Regarding SARQGELQKVLLMLVDQIDPNFKM [G17Q], the protein stability index stood at 1.61.

For SARQGELQKVLLMLVDEIDPNFKM [G17E], the protein stability index came to 2.08.

As for SARQGELQKVLLMLVDDIDPNFKM [G17D], the protein stability index turned out to be 1.36.

Consider SARQGELQKVLLMLVDNIDPNFKM [G17N], for which the protein stability index is 2.78.

As to SARQGELQKVLLMLVDVIDPNFKM [G17V], the protein stability index amounted to 3.87.

For SARQGELQKVLLMLVDKIDPNFKM [G17K], the protein stability index came to 1.36.

For the variant SARQGELQKVLLMLVDPIDPNFKM [G17P], the protein stability index is 1.97.

In the case of SARQGELQKVLLMLVDMIDPNFKM [G17M], the protein stability index came to 1.78.

Turning to SARQGELQKVLLMLVDHIDPNFKM [G17H], the protein stability index came to 1.87.

SARQGELQKVLLMLVDSIDPNFKM [G17S]: the protein stability index was 2.3.

Take SARQGELQKVLLMLVDCIDPNFKM [G17C]: the protein stability index was determined as 2.

With SARQGELQKVLLMLVDLIDPNFKM [G17L], the protein stability index stood at 2.07.

In the case of SARQGELQKVLLMLVDFIDPNFKM [G17F], the protein stability index turned out to be 3.49.

As to SARQGELQKVLLMLVDYIDPNFKM [G17Y], the protein stability index worked out at 2.38.

These data come from the supplement of paper PMC10567573.
